The target of this experiment is T1, RyRP12 peptide (ryanodine receptor 1) RyRP12 (UniProt P21817, also: TAMRA label, position not given here).
T1 chain: KKAVWHKLLSKQ
Put plainly: fluorescence anisotropy. (In general: Fluorescence polarisation rises when a labelled molecule tumbles more slowly, as on binding a larger partner.)

Ends that are not written are not given here.

B1: S100A1 (protein)
chain: MGSELETAMETLINVFHAHSGKEGDKYKLSKKELKDLLQTELSSFLDVQKDADAVDKIMKELDENGDGEVDFQEFVVLVAALTVACNNFFWENS
As for B1, binding was characterised by a dissociation constant (Kd) of 139 nM.

For orientation: Kd means the equilibrium constant for the complex coming apart. Low readings indicate higher affinity, high ones lower affinity.

These data come from publication PMC2771873 (2009).
